Where a chain is given by its changes, count along the chain named. Bridges are numbered along the chain shown (N, C = ends). Where no end group is shown, it is not given here. [ ]: non-standard residue; d: D form. Aib = CC(C)(N)C(=O)O Where only a bound is given, the exact number is not on record here.

What all share (test): cell-based or functional assay
One assay deals with human GLP-1 receptor (human, UniProt P43220 24-463).
A further assay addresses T1, human GIP receptor (human, UniProt P48546 22-466).
T1 sequence (looked up): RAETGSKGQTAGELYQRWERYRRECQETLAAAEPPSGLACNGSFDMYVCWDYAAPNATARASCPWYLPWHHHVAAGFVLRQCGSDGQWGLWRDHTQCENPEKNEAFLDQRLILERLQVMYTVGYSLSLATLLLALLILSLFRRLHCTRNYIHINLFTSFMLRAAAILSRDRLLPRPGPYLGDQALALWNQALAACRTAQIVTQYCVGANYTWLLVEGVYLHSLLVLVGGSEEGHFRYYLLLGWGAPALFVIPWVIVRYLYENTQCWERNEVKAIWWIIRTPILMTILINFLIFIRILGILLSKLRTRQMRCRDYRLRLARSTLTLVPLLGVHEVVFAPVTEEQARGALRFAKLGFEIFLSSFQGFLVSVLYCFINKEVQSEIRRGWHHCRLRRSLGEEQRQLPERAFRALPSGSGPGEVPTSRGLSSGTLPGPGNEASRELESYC

The target in another assay is human GCG receptor (human, UniProt P47871 26-477).
human GCG receptor, sequence (P47871 26-477): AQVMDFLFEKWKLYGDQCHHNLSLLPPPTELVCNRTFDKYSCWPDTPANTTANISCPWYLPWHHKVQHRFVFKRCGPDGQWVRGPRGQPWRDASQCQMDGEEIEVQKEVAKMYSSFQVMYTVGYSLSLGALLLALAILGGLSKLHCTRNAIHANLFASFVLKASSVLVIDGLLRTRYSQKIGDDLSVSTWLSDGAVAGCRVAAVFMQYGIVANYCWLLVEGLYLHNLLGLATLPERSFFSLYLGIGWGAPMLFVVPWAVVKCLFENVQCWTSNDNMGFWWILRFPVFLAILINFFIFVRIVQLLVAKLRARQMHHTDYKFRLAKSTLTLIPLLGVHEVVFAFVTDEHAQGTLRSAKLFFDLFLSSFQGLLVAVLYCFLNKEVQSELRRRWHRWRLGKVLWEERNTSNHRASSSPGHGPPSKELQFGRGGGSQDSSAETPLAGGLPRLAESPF

As for H[Aib]QGTFTSDYSKYLDEKRQKEFVNWLLAQKC (bridge 16-20; not fully specified (C-terminus)) [triple agonist of SEQ ID NO: 34], the “in vitro Activity Compared to Native Peptide (%), vs GLP-1” value with human GLP-1 receptor was 19.1%. Also, the “in vitro Activity Compared to Native Peptide (%), vs GIP” value in the assay with human GIP receptor stood at 0.6%. Further, the “in vitro Activity Compared to Native Peptide (%), vs Glucagon” value with human GCG receptor worked out at 0.92%.

Regarding H[Aib]QGTFTSDYSKYLCEKRQKEFVQWLLNGGPSSGAPPPSG (bridge 16-20; not fully specified (C-terminus)) [triple agonist of SEQ ID NO: 36], the “in vitro Activity Compared to Native Peptide (%), vs GLP-1” value with human GLP-1 receptor is 37.4%. Further, in the assay with human GIP receptor, the “in vitro Activity Compared to Native Peptide (%), vs GIP” value came to 0.2%. In the assay with human GCG receptor, the “in vitro Activity Compared to Native Peptide (%), vs Glucagon” value stood at 0.39%.

B1: triple agonist of SEQ ID NO: 4 (peptide)
peptide: HXQGTFTSDVSSYLLGQQQKEFIAWLVKGC
HELM: PEPTIDE1{H.[Aib].Q.G.T.F.T.S.D.V.S.S.Y.L.L.G.Q.Q.Q.K.E.F.I.A.W.L.V.K.G.C.[am]}$$$$V2.0; N-terminus assumed
SMILES: CC[C@H](C)[C@H](NC(=O)[C@H](Cc1ccccc1)NC(=O)[C@H](CCC(=O)O)NC(=O)[C@H](CCCCN)NC(=O)[C@H](CCC(N)=O)NC(=O)[C@H](CCC(N)=O)NC(=O)[C@H](CCC(N)=O)NC(=O)CNC(=O)[C@H](CC(C)C)NC(=O)[C@H](CC(C)C)NC(=O)[C@H](Cc1ccc(O)cc1)NC(=O)[C@H](CO)NC(=O)[C@H](CO)NC(=O)[C@@H](NC(=O)[C@H](CC(=O)O)NC(=O)[C@H](CO)NC(=O)[C@@H](NC(=O)[C@H](Cc1ccccc1)NC(=O)[C@@H](NC(=O)CNC(=O)[C@H](CCC(N)=O)NC(=O)C(C)(C)NC(=O)[C@@H](N)Cc1c[nH]cn1)[C@@H](C)O)[C@@H](C)O)C(C)C)C(=O)N[C@@H](C)C(=O)N[C@@H](Cc1c[nH]c2ccccc12)C(=O)N[C@@H](CC(C)C)C(=O)N[C@H](C(=O)N[C@@H](CCCCN)C(=O)NCC(=O)N[C@@H](CS)C(N)=O)C(C)C
In the case of B1, the “in vitro Activity Compared to Native Peptide (%), vs GLP-1” value with human GLP-1 receptor is 8.5%. Moreover, the “in vitro Activity Compared to Native Peptide (%), vs GIP” value with human GIP receptor is less than 0.1%. Besides, the “in vitro Activity Compared to Native Peptide (%), vs Glucagon” value in the assay with human GCG receptor was less than 0.1%.

H[Aib]QGTFTSDYSIAMDEIHQKDFVNWLLNTKC (bridge 16-20; not fully specified (C-terminus)) [triple agonist of SEQ ID NO: 35]: the “in vitro Activity Compared to Native Peptide (%), vs GLP-1” value in the assay with human GLP-1 receptor worked out at 7.5%. In the assay with human GIP receptor, the “in vitro Activity Compared to Native Peptide (%), vs GIP” value came out at 1.3%. Also, the “in vitro Activity Compared to Native Peptide (%), vs Glucagon” value with human GCG receptor is less than 0.1%.

B2: triple agonist of SEQ ID NO: 1 (peptide)
peptide: B1 peptide with L15D, Q18A, Q19A
HELM: PEPTIDE1{H.[Aib].Q.G.T.F.T.S.D.V.S.S.Y.L.D.G.Q.A.A.K.E.F.I.A.W.L.V.K.G.C.[am]}$$$$V2.0; N-terminus assumed
SMILES: CC[C@H](C)[C@H](NC(=O)[C@H](Cc1ccccc1)NC(=O)[C@H](CCC(=O)O)NC(=O)[C@H](CCCCN)NC(=O)[C@H](C)NC(=O)[C@H](C)NC(=O)[C@H](CCC(N)=O)NC(=O)CNC(=O)[C@H](CC(=O)O)NC(=O)[C@H](CC(C)C)NC(=O)[C@H](Cc1ccc(O)cc1)NC(=O)[C@H](CO)NC(=O)[C@H](CO)NC(=O)[C@@H](NC(=O)[C@H](CC(=O)O)NC(=O)[C@H](CO)NC(=O)[C@@H](NC(=O)[C@H](Cc1ccccc1)NC(=O)[C@@H](NC(=O)CNC(=O)[C@H](CCC(N)=O)NC(=O)C(C)(C)NC(=O)[C@@H](N)Cc1c[nH]cn1)[C@@H](C)O)[C@@H](C)O)C(C)C)C(=O)N[C@@H](C)C(=O)N[C@@H](Cc1c[nH]c2ccccc12)C(=O)N[C@@H](CC(C)C)C(=O)N[C@H](C(=O)N[C@@H](CCCCN)C(=O)NCC(=O)N[C@@H](CS)C(N)=O)C(C)C
Regarding B2, the “in vitro Activity Compared to Native Peptide (%), vs GLP-1” value in the assay with human GLP-1 receptor worked out at 3.2%. Further, in the assay with human GIP receptor, the “in vitro Activity Compared to Native Peptide (%), vs GIP” value is less than 0.1%. Also, in the assay with human GCG receptor, the “in vitro Activity Compared to Native Peptide (%), vs Glucagon” value was less than 0.1%.

As to H[Aib]QGTFTSDYSKYLDECRQKEFVQWLLNGGPSSGAPPPSG (bridge 16-20; not fully specified (C-terminus)) [triple agonist of SEQ ID NO: 37], the “in vitro Activity Compared to Native Peptide (%), vs GLP-1” value with human GLP-1 receptor came to 236%. The “in vitro Activity Compared to Native Peptide (%), vs GIP” value with human GIP receptor was 2.2%. For the same molecule, in the assay with human GCG receptor, the “in vitro Activity Compared to Native Peptide (%), vs Glucagon” value amounted to 6.21%.

B3: triple agonist of SEQ ID NO: 39 (peptide)
peptide: HXQGTFTSDYSKYLDGQHAQCFVAWLLAGGGPSSGAPPPS
HELM: PEPTIDE1{H.[Aib].Q.G.T.F.T.S.D.Y.S.K.Y.L.D.G.Q.H.A.Q.C.F.V.A.W.L.L.A.G.G.G.P.S.S.G.A.P.P.P.S.[am]}$$$$V2.0; N-terminus assumed
SMILES: CC(C)C[C@H](NC(=O)[C@H](CC(C)C)NC(=O)[C@H](Cc1c[nH]c2ccccc12)NC(=O)[C@H](C)NC(=O)[C@@H](NC(=O)[C@H](Cc1ccccc1)NC(=O)[C@H](CS)NC(=O)[C@H](CCC(N)=O)NC(=O)[C@H](C)NC(=O)[C@H](Cc1c[nH]cn1)NC(=O)[C@H](CCC(N)=O)NC(=O)CNC(=O)[C@H](CC(=O)O)NC(=O)[C@H](CC(C)C)NC(=O)[C@H](Cc1ccc(O)cc1)NC(=O)[C@H](CCCCN)NC(=O)[C@H](CO)NC(=O)[C@H](Cc1ccc(O)cc1)NC(=O)[C@H](CC(=O)O)NC(=O)[C@H](CO)NC(=O)[C@@H](NC(=O)[C@H](Cc1ccccc1)NC(=O)[C@@H](NC(=O)CNC(=O)[C@H](CCC(N)=O)NC(=O)C(C)(C)NC(=O)[C@@H](N)Cc1c[nH]cn1)[C@@H](C)O)[C@@H](C)O)C(C)C)C(=O)N[C@@H](C)C(=O)NCC(=O)NCC(=O)NCC(=O)N1CCC[C@H]1C(=O)N[C@@H](CO)C(=O)N[C@@H](CO)C(=O)NCC(=O)N[C@@H](C)C(=O)N1CCC[C@H]1C(=O)N1CCC[C@H]1C(=O)N1CCC[C@H]1C(=O)N[C@@H](CO)C(N)=O
On to B3, for which the “in vitro Activity Compared to Native Peptide (%), vs GLP-1” value in the assay with human GLP-1 receptor worked out at 13.9%. For the same molecule, the “in vitro Activity Compared to Native Peptide (%), vs GIP” value with human GIP receptor was less than 0.1%. Besides, the “in vitro Activity Compared to Native Peptide (%), vs Glucagon” value with human GCG receptor was determined as 0.53%.

B4: triple agonist of SEQ ID NO: 38 (peptide)
peptide: XXQGTFTSDKSSYLDERAAQDFVQWLLDGGPSSGAPPPSS
HELM: PEPTIDE1{[O=C(Cc1c[nH]cn1)[*:2]].[Aib].Q.G.T.F.T.S.D.K.S.S.Y.L.D.E.R.A.A.Q.D.F.V.Q.W.L.L.D.G.G.P.S.S.G.A.P.P.P.S.S.[am]}$$$$V2.0
SMILES: CC(C)C[C@H](NC(=O)[C@H](CC(C)C)NC(=O)[C@H](Cc1c[nH]c2ccccc12)NC(=O)[C@H](CCC(N)=O)NC(=O)[C@@H](NC(=O)[C@H](Cc1ccccc1)NC(=O)[C@H](CC(=O)O)NC(=O)[C@H](CCC(N)=O)NC(=O)[C@H](C)NC(=O)[C@H](C)NC(=O)[C@H](CCCNC(=N)N)NC(=O)[C@H](CCC(=O)O)NC(=O)[C@H](CC(=O)O)NC(=O)[C@H](CC(C)C)NC(=O)[C@H](Cc1ccc(O)cc1)NC(=O)[C@H](CO)NC(=O)[C@H](CO)NC(=O)[C@H](CCCCN)NC(=O)[C@H](CC(=O)O)NC(=O)[C@H](CO)NC(=O)[C@@H](NC(=O)[C@H](Cc1ccccc1)NC(=O)[C@@H](NC(=O)CNC(=O)[C@H](CCC(N)=O)NC(=O)C(C)(C)NC(=O)Cc1c[nH]cn1)[C@@H](C)O)[C@@H](C)O)C(C)C)C(=O)N[C@@H](CC(=O)O)C(=O)NCC(=O)NCC(=O)N1CCC[C@H]1C(=O)N[C@@H](CO)C(=O)N[C@@H](CO)C(=O)NCC(=O)N[C@@H](C)C(=O)N1CCC[C@H]1C(=O)N1CCC[C@H]1C(=O)N1CCC[C@H]1C(=O)N[C@@H](CO)C(=O)N[C@@H](CO)C(N)=O
As to B4, the “in vitro Activity Compared to Native Peptide (%), vs GLP-1” value in the assay with human GLP-1 receptor came to 2.3%.

These data come from patent US20250114463A1, “LIVER-TARGETED DRUG AND USE THEREOF” (HANMI PHARM. CO., LTD., priority 2021, published 2025).
